From paper PMC9867944 (Bioscience Reports, 2023)

Key:
[1] = target: T1, human PD-1 protein (Acro biosystems) (Homo sapiens (Human)., UniProt Q15116); assay: ELISA; Phage-ELISA; wells coated with human PD-1 protein; supernatant of the colonies added for 1 h; anti-M13/HRP (1:5000); positive if absorbance more than two times the negative control (PBS); conditions: one partner purified
T1 construct: programmed death protein 1 (PD-1), human, recombinant protein; probably the extracellular domain; also called human PD-1 antigen; hPD-1; source: bought: Acro biosystems

[2] = target: T2, anti-PD-1 Nb C12-Fc (Bactrian camel); assay: ELISA; plates coated with human PD-1 or mouse PD-1 protein at 2 ug/ml overnight; serial diluted anti-PD-1 Nb-Fc added, 37 C, 1 h; HRP-conjugated antihuman IgG; conditions: both partners purified
T2 construct: VHH C12 selected from a naive Bactrian camel phage display library; Nb C12 fused to the human IgG1 Fc fragment in plasmid pCZN1; about 40 kDa on SDS-PAGE; also called anti-PD-1 Nb-Fc; PD-1 C12 Nb-Fc

T1 sequence (Q15116 25-170): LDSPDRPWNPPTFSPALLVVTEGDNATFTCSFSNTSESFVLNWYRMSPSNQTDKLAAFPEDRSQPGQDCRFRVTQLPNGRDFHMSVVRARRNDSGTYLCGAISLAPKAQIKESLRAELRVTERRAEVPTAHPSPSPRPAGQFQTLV

B1: anti-PD-1 Nb C12, displayed on phage (VHH)
VHH: QVQLQELGETRCRHGGSLRLSCKVSGYTQRSYCLGWLRQAPGNEREAVAVLQHSGNFRHYADSVQGRFVISQDYTDNTVYLAMNNLKSEDAAMYYCAAVGLRVSQFNYWGQGTQVTVSS
notes: VHH C12 selected from a naive Bactrian camel phage display library; same VHH as in m1; Detected with anti-M13/HRP; also called C12 Nb; source: E. coli TG1, phage in the supernatant of the colonies
- binding result [1]: binds

B2: mouse PD-1 protein (receptor, UniProt Q02242 25-288, looked up)
chain: LEVPNGPWRSLTFYPAWLTVSEGANATFTCSLSNWSEDLMLNWNRLSPSNQTEKQAAFCNGLSQPVQDARFQIIQLPNRHDFHMNILDTRRNDSGIYLCGAISLHPKAKIEESPGAELVVTERILETSTRYPSPSPKPEGRFQGM
notes: programmed death protein 1 (PD-1), mouse, protein coated on plates; also called mouse PD-1 antigen
- binding result [2]: no binding

B3: anti-PD-1 Nb C11, displayed on phage (VHH)
VHH: QVQLQESGGAWCEPGGSLTLPCAVSGFAVDRDAVSWVRKAPGQGLQWVSTTTPDGTNYYGALAKDRFTVTRDTTRNTLQLQLTKLRIEDTAKYHCVQDYCSTGRCSLRTQGTQVTVSS
notes: VHH C11 selected from a naive Bactrian camel phage display library; Detected with anti-M13/HRP; C11 was never made as an Fc fusion (ligation to pCZN1 failed); also called C11 Nb; source: E. coli TG1, phage in the supernatant of the colonies
- binding result [1]: binds
